# The supplement of paper PMC10724198
# ± gives the standard deviation of the averaged measurements.
# Test system: Saccharomyces cerevisiae
# Assay: protein stability index of tFT-peptide fusion (C-terminal peptide) (PSI (0-1 scale)); higher = more stable (slower turnover)
# Conditions: genetic background: wild type; temperature: 30 C
# 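Note: PSI is a weighted mean of sequencing reads over stability bins, variants kept only with over 10 reads, mCherry proximal and sfGFP distal, peptide attached via GGGS linker.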
row,Sequence,protein stability index
1,FLLDRSSADHSL,0.684 ± 0.1
2,RFSYFPALFFPS,0.678 ± 0.043
3,CIARPSGNRSYL,0.714 ± 0.069
4,LPPLPLPPATTP,0.715 ± 0.04
5,IKFVRLEGLCPL,0.624 ± 0.019
6,ITTLRSLWVVGL,0.609 ± 0.085
7,PLSLSPLPSPPL,0.704 ± 0.041
8,LWGGVVGRVRGV,0.635 ± 0.037
9,GLCVTEFCGFFL,0.705 ± 0.019
10,SSSPLPPPRLPP,0.7039 ± 0.0016
11,NKILIKKEQEEI,0.64356 ± 0.00045
12,TKCGESRENARI,0.681 ± 0.022
13,SFLPPLFPHPPP,0.841 ± 0.031
14,LSLFFSSFLITF,0.628 ± 0.12
15,FRGGRTEWEKNV,0.719 ± 0.058
16,DFFPVSGLANEH,0.636 ± 0.092
17,CSSVTEFWWAVF,0.766 ± 0.1
18,PLFRTPPPRPSP,0.673 ± 0.14
19,GWAGRCAPGRVG,0.637 ± 0.093
20,SGLPVPFSALRS,0.718 ± 0.049
21,VHHTPFFSAPHV,0.647 ± 0.09
22,TVGLSLGRGSGD,0.67 ± 0.024
23,PPYSIPARAPHP,0.7036 ± 0.0015
24,KFYIIKRLSGVE,0.64 ± 0.029
25,NECKIKKDNTKK,0.672 ± 0.06
26,SILRLRSVVPAE,0.6457 ± 0.0027

row,Sequence,protein stability index
1,IPFFHVVPRPPP,0.628 ± 0.024
2,GLGREVAIMNTW,0.669 ± 0.058
3,VRRVVDESKTRD,0.659 ± 0.038
4,KPPNRQCLYDAL,0.721 ± 0.094
5,NENFILCPRVNL,0.701 ± 0.035
6,PHPHRPPRSFLL,0.704 ± 0.1
7,GSWGWHVRGSGV,0.598 ± 0.037
8,RHPPPPPPALTP,0.707 ± 0.054
9,VPYFRSMSSLSI,0.6347 ± 0.0039
10,ASTMAVLDYAPA,0.621 ± 0.0083
11,MAWGVGTRRLGW,0.679 ± 0.044
12,QLCRPRIFTNRG,0.662 ± 0.034
13,PPLPPRPQTHLH,0.728 ± 0.074
14,LHVPPSPFPTPP,0.679 ± 0.049
15,FYYRYDRRTRCV,0.548 ± 0.012
16,LVLFFRSYCLVV,0.5142 ± 0.0036
17,PYFLLLVSIPPS,0.525 ± 0.0056
18,IVNDEHVHTYTR,0.743 ± 0.013
19,TPPRLLLPAATT,0.7244 ± 0.0061
20,SLLFLRFLFSTP,0.705 ± 0.0086
21,YRKAAGSQDRAV,0.663 ± 0.018
22,IPEEHKLTWIIP,0.74 ± 0.067
23,VGIFQLCCALGG,0.47 ± 0.085
24,RCRNVGAVATPR,0.643 ± 0.1
25,PPPPPHPPPHTR,0.678 ± 0.017
26,FLRGLCGKMSKG,0.673 ± 0.0081

row,Sequence,protein stability index
1,SSSFLVLSSHFI,0.701 ± 0.028
2,GEGRWWGSFWVG,0.672 ± 0.019
3,PTSACAPACPLL,0.706 ± 0.032
4,PRPLLLLPPATP,0.703 ± 0.029
5,STLPPSRLSSPL,0.638 ± 0.017
6,GFWLVSCPWLLF,0.612 ± 0.14
7,RDLLYHNCRNMI,0.695 ± 0.027
8,FEDWMQGLGKWV,0.792 ± 0.054
9,LEHPAHPTKLQL,0.7067 ± 0.0033
10,ENPSTIDLSARS,0.656 ± 0.04
11,SHPPPPPHTPPS,0.736 ± 0.02
12,GGLSGRFRSPSL,0.754 ± 0.081
13,SAVHRSVPMGGG,0.666 ± 0.032
14,SSVCPWACPPPP,0.666 ± 0.1
15,APPPSPPALVLP,0.641 ± 0.026
16,SPSFDLLFSPFD,0.778 ± 0.01
17,TFARMYRKGSED,0.686 ± 0.0077
18,TYFMSAFWPPGV,0.631 ± 0.03
19,GGVVLTWLGENC,0.717 ± 0.025
20,SPILRFPPPCFL,0.67 ± 0.019
21,ACPLPPLPTPLP,0.736 ± 0.04
22,QTLQHLQTPSIS,0.761 ± 0.092
23,LHPPLPPLPFSA,0.679 ± 0.017
24,VALTYRSAGKWA,0.693 ± 0.058
25,APPPLPPTPPPL,0.7017 ± 0.0031
26,PYAFPPPPPPPP,0.64 ± 0.032

row,Sequence,protein stability index
1,SSQRPRCTFVLL,0.684 ± 0.031
2,VDLYVRRVGVGG,0.631 ± 0.037
3,GARGRGLVTESA,0.703 ± 0.035
4,ISRLLVLCRDLT,0.65 ± 0.033
5,NKYTKSKKNNKE,0.761 ± 0.14
6,NESSASKEKSNI,0.69 ± 0.038
7,LSSGPARVMVVL,0.608 ± 0.04
8,GCGGVWGRSEKY,0.684 ± 0.019
9,KRKKQKKNQQNR,0.682 ± 0.019
10,LTASRLAGSGGE,0.69 ± 0.023
11,SKQKSKNYEAFK,0.721 ± 0.039
12,FISKHHPLVPPS,0.719 ± 0.041
13,LIGASFGLYPVS,0.693 ± 0.07
14,SLLCDQSSLGQC,0.747 ± 0.11
15,TYKNTVTRTKAY,0.658 ± 0.02
16,YAVIRILCSSRR,0.5725 ± 0.0039
17,RGDHPAAGFPCG,0.686 ± 0.033
18,SLVVPVSAAQYV,0.653 ± 0.028
19,CKRDENKKIILR,0.727 ± 0.014
20,PPPPPPPPPPPL,0.677 ± 0.028
21,LDGIKVKFRRSL,0.698 ± 0.013
22,LYAHVPSYRVSA,0.593 ± 0.058
23,AQPPPPPAPTPS,0.674 ± 0.093
24,WRKMSNDIRGRW,0.799 ± 0.11
25,CGSHNRGLSSQL,0.676 ± 0.022
26,GNWRGLRLMSAP,0.7603 ± 0.0062

row,Sequence,protein stability index
1,AGGAGGCRGWSI,0.705 ± 0.018
2,VLTGFTGSAIIG,0.682 ± 0.03
3,LVLKLWNKFFVD,0.65438 ± 0.00026
4,SGLPALPRPVWP,0.491 ± 0.076
5,TPDVLGPLFPGD,0.642 ± 0.099
6,RPTPHVVLPPLP,0.524 ± 0.067
7,DRNGKIGTFKKV,0.795 ± 0.12
8,CRWLLWVDGWRV,0.5838 ± 0.0043
9,VGGVRGAGCVRG,0.705 ± 0.024
10,PHHPPPPLPCVV,0.632 ± 0.071
11,PLPPISSFPSLS,0.703 ± 0.028
12,GTSCPCGGALRP,0.776 ± 0.035
13,KITEKLGSPKTF,0.654 ± 0.086
14,MQGCKAYSVGRQ,0.701 ± 0.061
15,IKLCRSTVVTGV,0.592 ± 0.013
16,IIVGFFGLLLGL,0.5413 ± 0.0048
17,CLPSQSAESLTF,0.664 ± 0.02
18,QFLWCFRPCCCS,0.584 ± 0.081
19,AFRKRTFKQESC,0.642 ± 0.0098
20,YFLPLLCRSPSL,0.707 ± 0.0095
21,LPSPPPAPTPGP,0.681 ± 0.019
22,ADRTLLLKQWYG,0.682 ± 0.037
23,VEFGGICSYVGC,0.724 ± 0.036
24,HLVLIHPTQTLN,0.634 ± 0.045
25,RTLEIYRGLTNE,0.648 ± 0.094
26,CVVRADGVVGIL,0.649 ± 0.012

row,Sequence,protein stability index
1,HPGPFSTTWHPT,0.743 ± 0.068
2,GWLRGVCFCSWG,0.73 ± 0.037
3,VCDFVLALRGLT,0.649 ± 0.029
4,QHFSSPQPVPYS,0.696 ± 0.013
5,PPSLPPPIHLPL,0.646 ± 0.011
6,GRCWVMCSEGEK,0.64 ± 0.057
7,VCARSVLFFWAA,0.782 ± 0.25
8,QDSDRSLTPKPL,0.688 ± 0.028
9,CSPSPARPPPPR,0.684 ± 0.013
10,ARSQGEKGGDVV,0.692 ± 0.0072
11,NKKKKTAIPPKR,0.672 ± 0.021
12,KEQESKAISYPV,0.718 ± 0.035
13,PAPPLRVAPSRI,0.67 ± 0.014
14,VWVFGLGLGRVV,0.691 ± 0.032
15,DLGVCCLLGDFG,0.577 ± 0.0072
16,DLPRLLLSPSLP,0.67 ± 0.058
17,QLRRPPPPLPLP,0.714 ± 0.0072
18,KKGRRERRITNE,0.695 ± 0.013
19,WGEGRGRVWEIS,0.665 ± 0.036
20,GGEVGRGRLGVV,0.628 ± 0.018
21,AYRLAFYGCVMR,0.514 ± 0.02
22,GIDVGCEWYQGG,0.698 ± 0.037
23,FSSFVLLFFSFP,0.541 ± 0.011
24,PFRSFSPPPRAP,0.742 ± 0.17
25,TKRKEKHKIIGK,0.705 ± 0.046
26,EVASMSCPVFLF,0.652 ± 0.03

row,Sequence,protein stability index
1,PSVLGCIVPLIW,0.7197 ± 0.0043
2,CLAAPIQDGGLT,0.684 ± 0.086
3,DAFWLRSRRSEG,0.712 ± 0.0039
4,TIIPRHTFLPAP,0.723 ± 0.036
5,LPPSPEPLPPRR,0.717 ± 0.059
6,ALCEVLSKSFEF,0.6617 ± 0.0025
7,PPLPLPPPIRPP,0.6388 ± 0.0037
8,PPPPPPLFPSPP,0.772 ± 0.13
9,GGVWAGEATGVQ,0.666 ± 0.052
10,TYRGKIVAPGVL,0.656 ± 0.053
11,VGACWGCGVCPL,0.755 ± 0.049
12,PPPTPSPPPLPP,0.5748 ± 0.0057
13,DHNTRGYQTKSR,0.667 ± 0.031
14,GHGEGPGRDLGG,0.648 ± 0.055
15,RFFYGGRRTQQT,0.753 ± 0.058
16,VGFSAFSDSFFV,0.7224 ± 0.0046
17,MVGGVLLSGCRF,0.6455 ± 0.0021
18,KRNKDFIYTYRL,0.696 ± 0.013
19,APPPLLPLRPFR,0.606 ± 0.1
20,GGDWVVVALLGV,0.596 ± 0.017
21,TPTPLTRRPTQV,0.673 ± 0.041
22,DLRSSDPVAGSL,0.623 ± 0.011
23,PPPTPHPLRRTP,0.735 ± 0.069
24,RGGGGGSVSFWW,0.676 ± 0.071
25,LSPCCFLTSSSF,0.71 ± 0.033
26,RFSLGLIFLPSL,0.68 ± 0.044

row,Sequence,protein stability index
1,LLLLRPPLGASF,0.711 ± 0.016
2,PNAPSLSPPSLF,0.624 ± 0.066
3,KQNAHKKINKYE,0.75 ± 0.02
4,TNGHNGQENGEE,0.602 ± 0.06
5,GCRELVRCVMLG,0.669 ± 0.083
6,IGQCYLRHRGMS,0.5544 ± 0.0053
7,GQWCVAAALIER,0.699 ± 0.1
8,SPPRPPVLSPGH,0.68 ± 0.085
9,VGRGPSAPVSCV,0.726 ± 0.061
10,EVFVVHLLGEAS,0.574 ± 0.064
11,RGYSGSLSVVIY,0.657 ± 0.057
12,ALMITIMNNREF,0.649 ± 0.021
13,PPTPGPPPLRYP,0.705 ± 0.068
14,RQCSGMIMKDVG,0.73 ± 0.036
15,VTLFFLFSLSPP,0.56 ± 0.013
16,LPPPRPHLSFVP,0.72 ± 0.012
17,DIHVNLHKSRKM,0.626 ± 0.027
18,LSFAGLPFCPGL,0.722 ± 0.13
19,LPHLDPPPLPPP,0.6386 ± 0.0052
20,VNYRVWRKRGGR,0.644 ± 0.057
